Data reported in the supplement of paper PMC12042874.
± gives the uncertainty stated by the source.

assay: amyloid nucleation score (Sup35N fusion, yeast selection) (log enrichment); library NNK2; higher = more nucleation; inactive = no reads after selection
In short: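 On medium lacking adenine and uracil, psi-negative yeast expressing peptides of 20 random codons fused to Sup35N were grown 7 days at 30°C after a 24-hour induction with 100 μM copper sulfate. Illumina sequencing of input and output plasmid inserts gave the reads, and sequences under 100 input reads were excluded. The nucleation score is the DiMSum log enrichment of output over input reads, centred on the mode score of non-aggregating sequences.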

| Substance | amyloid nucleation score |
| --- | --- |
| LDSQMWNMSGQVRTRIGRSV | 0.459 ± 0.43 |
| YCFMVRFRYGPLREMTNCSK | -0.34 ± 0.62 |
| NMRSNRVSLVPDGMLRLSAN | 1.39 ± 0.28 |
| FSNSPVISFGQ | -0.541 ± 1 |
| SGVIHSVFVWKCLITGGM | -0.711 ± 0.38 |
| DLRRSKSFDDTNEHWHSGFR | -0.607 ± 0.64 |
| LYDWRWSWSRSATSSFGWLT | 0.296 ± 0.49 |
| KVMGYGYA | -1.02 ± 0.55 |
| VGGGVHGEFGHHYCPSVLGL | 1.81 ± 0.2 |
| KIFFGNNRF | 3.4 ± 0.13 |
| MTSALGWQIYVYLSGAEYET | 0.31 ± 0.5 |
| EAYVHGMR | 1.07 ± 0.25 |
| GCFERGNLFNFV | inactive |
| GVWSITNRFQEIVGNCLCVR | 0.576 ± 0.16 |
| LTVDCQDSLLYWHRMMSRPL | 0.853 ± 0.31 |
| RFLSYTSCLEMIVFCGRVQG | 0.207 ± 0.23 |
| ETFNCNFVWL | 4.83 ± 0.1 |
| PHKSAGGRLSMFGAKHGDMV | 0.822 ± 0.49 |
| KLQRTGLYCYLY | -0.912 ± 0.42 |
| YGNPRIFIESMKYEVGIRVS | inactive |
| VWLYCSEQDRCVMLASRELL | 0.465 ± 0.34 |
| PLIYLSSFYIDCHLWSSFGV | 6.806 ± 0.035 |
| GRNLFSFVFQMLV | 0.043 ± 0.29 |
| MGRGPESQHFVCCHRRAWL | 1.15 ± 0.3 |
| GCWYIDIWL | 1.73 ± 0.11 |

| Substance | amyloid nucleation score |
| --- | --- |
| LCSVWEVFLYFF | 1.84 ± 0.11 |
| FFLWVGTYSVVPGLCVYMS | 3.78 ± 0.11 |
| SLVFVFVITKT | 5.526 ± 0.05 |
| IIMNVVHEDSLL | 0.019 ± 0.5 |
| TMLCYYINFRLIVYRSWYKQ | -0.788 ± 0.34 |
| ACCLIAIWRPI | 5.47 ± 0.085 |
| YFSYVMSVAATAMLGLVVVR | 0.189 ± 0.3 |
| SVRVA | 1.66 ± 0.26 |
| SDNRENFSRTFCFSVVGNWK | inactive |
| RYRALPTMPLEMSVQGDLRV | -0.319 ± 0.25 |
| IYSFSASNW | 0.048 ± 0.79 |
| SRFCEH | -0.164 ± 0.39 |
| NFVNSFRVPISVYKVYLYGG | 4.49 ± 0.08 |
| YPLGS | inactive |
| RWEMLPVKSHNNLRIRK | -0.293 ± 0.31 |
| SWVRVTSPSIATFSATYCVL | 0.619 ± 0.81 |
| ACKVYKLAMNIVLGGTGWSD | 4.8 ± 0.077 |
| TYEMTRMSGIKSSLLPREFW | 1.52 ± 0.17 |
| LLFARK | -0.038 ± 1.1 |
| CLTSGHL | 0.372 ± 0.74 |
| TLHKLFQMNLGRR | -0.738 ± 0.44 |
| VRLFLAIMVYVLHSHHRYAD | 0.978 ± 0.74 |
| FLSYYFGPFRELVF | -0.287 ± 0.56 |
| LYIYLNYFNTAVTFYGCVCS | 3.94 ± 0.052 |
| LGRCSALGYIRISCTMKGAG | 0.21 ± 0.74 |

| Substance | amyloid nucleation score |
| --- | --- |
| RRLFYRRRQHNILLAYWVWY | 0.524 ± 0.81 |
| YAVLSLKAWCLSG | 4.61 ± 0.054 |
| IALTQILLRFFGLHA | -0.305 ± 1.1 |
| GTCLSFYEFNSWWIIKMFSK | 0.657 ± 0.23 |
| FQDLDLVHRLHSVSVNLETE | 0.123 ± 1 |
| TRCGE | -0.134 ± 0.25 |
| NPVINT | -0.271 ± 0.46 |
| FGKCYYLFVSYHYMLGLACT | -0.549 ± 1 |
| WRVGVK | 0.312 ± 0.25 |
| YYHIDYYRYWPALLGCFKYS | -0.898 ± 0.34 |
| ITIPVNLPLHFLYSGQYHVA | -0.307 ± 0.74 |
| YLLNLEF | inactive |
| RNSDGPLCSDGVVHFIRMLV | 0.001 ± 0.65 |
| WRSLLVLAFHLRLLYVSSMK | inactive |
| FCWLCFIRSEV | 0.554 ± 0.81 |
| FLRFLVCLG | -0.22 ± 1.1 |
| NHIFYRMCSNLTAKYIRLTS | inactive |
| TNYKRCCV | -0.12 ± 0.32 |
| ITLRRLTVITENPLGWNHIT | 0.499 ± 0.36 |
| NIVLTLSRGF | 2.56 ± 0.1 |
| TQMTMEGAYPCCVVVP | 0.903 ± 0.74 |
| RCTGVMPV | -0.072 ± 1.1 |
| VLVRS | 0.157 ± 1 |
| ALIKTLYY | -0.305 ± 0.48 |
| WNTISRLCDLWLRVAYGSLV | 0.461 ± 0.65 |

| Substance | amyloid nucleation score |
| --- | --- |
| VLCRRHSN | 1.41 ± 0.38 |
| GQGDYMRFSDNAGGPYSKLE | 1.73 ± 0.24 |
| LGLTYGHHWY | 3.12 ± 0.071 |
| FLITCQLESTLYQW | -0.334 ± 0.64 |
| GVCSGFPFVRFRNIYIRRLA | 3.22 ± 0.078 |
| GMTVR | 0.011 ± 0.54 |
| IKFVEPYSFLS | 1.32 ± 0.092 |
| ICSDFGPNSGYRHQWVCIGV | -0.023 ± 0.45 |
| ITCVVLPLSRWDVHFKCSCH | 0.096 ± 0.31 |
| RVLGWCSNSWMVEMSNECSW | 1.13 ± 0.3 |
| YVPMQY | 0.382 ± 0.53 |
| LIYVATMWGNHSFYDLWDMQ | 0.112 ± 0.21 |
| KVSWFVRIYMCEIRMRIGRS | 1.44 ± 0.33 |
| LMINGRLRDITMDATVYCNS | 0.764 ± 0.2 |
| WGTDISYMGRSGCTLSGCIY | -1.13 ± 0.55 |
| MVLIENSCKMSSYQE | -0.405 ± 0.35 |
| FNYDIPPVVQGCHISAQLLP | -0.271 ± 0.74 |
| LHIYTKVHRSR | 3.59 ± 0.13 |
| LSNAYRTGFPLICSLNNHRH | 1.03 ± 0.68 |
| VTFYLGSSE | 0.155 ± 1.1 |
| RNGVNRLELGFLIETLHNAC | 4.622 ± 0.038 |
| IYTTYKRTFRS | -0.553 ± 1.1 |
| LRSSKKCYTILYVSYTLK | -1.15 ± 1.1 |
| VWEGTGPLEICWFCWGEW | 2.5 ± 0.17 |
| EFSSTTSALGKDVRVFNFAI | -1.26 ± 0.62 |

| Substance | amyloid nucleation score |
| --- | --- |
| YLPTGELIHHYKTSIVLDSA | -0.458 ± 0.41 |
| SETLFEYS | -1.55 ± 0.55 |
| RERVFIGNGWTRLSRARGQA | -1.15 ± 0.62 |
| RGGSTPYYNWSAGDGWKKDK | 2.86 ± 0.065 |
| NFSDFRCLL | -0.031 ± 1 |
| VFYNAASDFLAILQEFTSSH | inactive |
| SYYFQAFDYKFLSMVIDAYG | 7.085 ± 0.043 |
| MVLEGHKCYGLRNGPNNARI | 0.451 ± 0.49 |
| TYTKFISILRSALSLMYLAS | 0.972 ± 0.67 |
| LVGHYSDRDYVEYARRDCAG | 0.252 ± 0.8 |
| FEAVDWFKL | -0.603 ± 0.74 |
| TGLNLFRDSQTGELGGGYTR | 5.495 ± 0.049 |
| RFFVYWFVFLCRLNGCVLWT | -0.689 ± 0.4 |
| NIFRRLLSIIIVFDQDRRKM | -1.01 ± 1.1 |
| ADWMFRFMKERRQMVWNTRI | 0.044 ± 1.1 |
| DEPLWKLKFKFEWFIRTLVI | -1.37 ± 0.76 |
| VQLDSSFLIM | 1.02 ± 0.48 |
| LSSHVCGGM | 4.8 ± 0.054 |
| TCTNLSCTGWKNGVCVCM | 8.536 ± 0.057 |
| MDLMGCLYYPDT | 1.05 ± 0.35 |
| SISVAVRSCQVTVPGKCDCA | 7.756 ± 0.035 |
| CAFYDYGKALPRGNFRLSKM | -0.208 ± 1 |
| VCFGIKWSMLCWYFMDGGQQ | 2.05 ± 0.16 |
| VICFAMSMILR | 3.38 ± 0.13 |
| MHSFHTICLLLMWRESRIAV | 0.45 ± 0.39 |

| Substance | amyloid nucleation score |
| --- | --- |
| WYVFACLVELYNCGPHGAID | inactive |
| AFFNE | 6.023 ± 0.039 |
| LFKEDRDRCSC | 0.99 ± 0.49 |
| IRKGSHGSKMIEPVAMRSAC | 4.88 ± 0.083 |
| FRKEEADYHGYRLYSVAVNA | -0.214 ± 0.36 |
| VDYYDIQCL | 0.649 ± 0.36 |
| ILVSFYRDSS | 0.416 ± 0.44 |
| RFSYFFHVLMRGRNYVQATG | inactive |
| AWESNCIVRFKY | 4.36 ± 0.089 |
| SQMYGLAYVCRQ | 6.28 ± 0.076 |
| EDRNSAFAWSSH | 3.54 ± 0.14 |
| VTIRDLFYGHVRQPDSQVVI | 0.883 ± 0.52 |
| VMGEKIWSAWYTRDDQLCGS | 0.547 ± 0.36 |
| ADATGVECPIYDRRRVNRTN | -0.235 ± 0.8 |
| YLEFSPTSITWGAPLERYST | inactive |
| TDVRGDTSRGLGSFKLFRIM | -0.354 ± 0.76 |
| NYAQATRMFFNLMKSWLKMR | -1.02 ± 1.1 |
| SCSRLVFRRVVSGIISLCME | -0.901 ± 0.79 |
| DCFTRYGCAGKYRVGAQGSS | 1.47 ± 0.47 |
| DMLPVRVVAHWCVVARCTRV | 0.965 ± 0.2 |
| KRSLIINGAATT | 1.61 ± 0.26 |
| KVRDCDIMAPNIMVRSLNRS | 1.73 ± 0.16 |
| CDTYNFCIL | 6.124 ± 0.035 |
| NQTPLMLACSADFHSISSWT | 0.365 ± 0.4 |
| SAVSMMLYWGSLNRVDYCWS | 0.877 ± 0.32 |

| Substance | amyloid nucleation score |
| --- | --- |
| WLLNYYRGGVWLGLWTRKE | -1.3 ± 0.48 |
| QSRDKYLKFRPSLWATEMTW | -0.127 ± 0.31 |
| CVVKDSSTVFM | -1.9 ± 1 |
| ECVDCESIEMEAVSC | 1.26 ± 0.16 |
| WSLQSQGYRILDGYGV | 0.6 ± 0.44 |
| YMTSD | -0.464 ± 0.41 |
| RHSCFICFNVLVICGLNLSL | 5.927 ± 0.037 |
| IQKLRVRHDMISYTSEMSVN | -0.218 ± 0.55 |
| WSKLYTFIFLASNKLLTWPC | inactive |
| KFSVSLICYVTASRYSNYRE | 0.362 ± 0.31 |
| IDSWCVTHATKIGSYWML | 0.12 ± 0.34 |
| RWLDSERRTTRHLCSRGYST | 1.24 ± 0.38 |
| VNVYMYNYLLKHITKDRRST | 8.16 ± 0.031 |
| NARVL | -0.853 ± 0.64 |
| TIWGYARC | 2.67 ± 0.11 |
| RICVRCPSYYTMWLWCLRFL | inactive |
| KWTFLRLILTMV | -0.511 ± 0.56 |
| YSTIKIHLPGLVVRNQSLVR | inactive |
| VPFCGNNCSHCVRMSRLGRS | 0.719 ± 0.47 |
| LCACIELSNKMLLTFNSNVK | -0.517 ± 0.32 |
| NFENCVFWYNLYCNFD | 7.516 ± 0.047 |
| NHLMSMFDCSDTQMSSSSIA | 0.308 ± 0.32 |
| QACRSTGNSFVLNRYMKERT | 0.215 ± 0.24 |
| RARGIV | -0.664 ± 0.55 |
| RDIGKYRMYDLTKVRAITLT | -0.353 ± 0.35 |
